B1: Tnpo3 Mut peptide (peptide)
peptide: SYMLQALCI
notes: Mut of (sy/LD)MLQALCI; Meth A; also called mutant Tnpo3 peptide; sy-MLQALCI

target: T1, H-2 K^d molecules purified by affinity chromatography (human, UniProt P61769 21-119; P01902 22-305); assay: radiolabeled peptide inhibition assay, purified H-2 K^d
T1 construct: MHC class I molecule, 1-10 nM in the assay, with added human beta-2 microglobulin; also called purified MHC molecules
Text: (§1) Binding assays. […] Under the conditions utilized, where [label]<[MHC] and IC₅₀≧[MHC], the measured IC50 values are reasonable approximations of the KD values.

How did the IC50 turn out when CYAKLKEQL (WT of CYAK(v/L)KEQL) [Ssx2ip WT peptide] was run?
Its IC50 is 0.0032 µM.

With CYAKVKEQL (Mut of CYAK(v/L)KEQL; CMS5) [Ssx2ip Mut peptide] as the binder, how does the IC50 read?
Its IC50 is 0.026 µM.

Which IC50 does the source give for NYLLSLVAVVL [Serinc1 WT peptide] here?
Its IC50 is 20.9 µM.

How did the IC50 turn out when NYLLSLVAVML (CMS5) [Serinc1 Mut peptide] was run?
The IC50 was 2.68 µM.

TYIRPFETKV (Mut of TYIRP(f/L)ETKV; Meth A) [Ccdc85c Mut peptide] was tested. Which IC50 did it give?
The IC50 was 6.16 µM.

How did the IC50 turn out when HYLSAILRL (WT of HYLS(s/A)ILRL) [Pacs2 WT peptide] was run?
Its IC50 is 1.27 µM.

HYLSSILRL (Mut of HYLS(s/A)ILRL; Meth A) [Pacs2 Mut peptide] was tested. Which IC50 did it give?
The IC50 was 0.041 µM.

How did the IC50 turn out when YYVPLLKRVPS [Alms1.2 WT peptide] was run?
The IC50 was 1.49 µM.

For YYVPLLKRVPL (Meth A) [Alms1.2 Mut peptide], which IC50 is on record?
Its IC50 is 0.421 µM.

For HYINMSLPI (WT of HYINM(i/S)LPI) [Ufsp2 WT peptide], which IC50 is on record?
Its IC50 is under 0.0001 µM.

With HYINMILPI (Mut of HYINM(i/S)LPI; Meth A) [Ufsp2 Mut peptide] as the binder, how does the IC50 read?
The IC50 was 0.00023 µM.

For AYCETCWEW [Apc WT peptide], which IC50 is on record?
Its IC50 is 0.06 µM.

For AYCETCWEL (Meth A) [Apc Mut peptide], which IC50 is on record?
Its IC50 is 0.023 µM.

target: T1, H-2 K^d molecules purified by affinity …; assay: as above; remark: another data set of the same source
Text: as §1

How did the IC50 turn out when PDLTQYAIIML [Dhx8.1 WT peptide] was run?
Its IC50 is 1.65 µM.

Which IC50 does the source give for PYLTQYAIIML (CMS5) [Dhx8.1 Mut peptide] here?
Its IC50 is 2.19 µM.

Which IC50 does the source give for DYVPMEQP (Mut of D(y/D)VPMEQP; CMS5) [Alkbh6.1 Mut peptide] here?
The IC50 was 60.9 µM.

With LYVSKLNGP (Mut of L(y/D)VSKLNGP; Meth A) [Galnt1 Mut peptide] as the binder, how does the IC50 read?
The IC50 was 27.1 µM.

For AYILAALTKLQ (Meth A) [Trim26.2 Mut peptide], which IC50 is on record?
Its IC50 is 17.6 µM.

How did the IC50 turn out when EYLDLQTQ (Mut of E(y/D)LDLQTQ; Meth A) [Zfp236.1 Mut peptide] was run?
Its IC50 is 1.64 µM.

Which IC50 does the source give for IYGVVARNRAL (Mut of I(y/D)GVVARNRAL; Meth A) [Dis312.1 Mut peptide] here?
The IC50 was 0.143 µM.

With AYAKQFAAI (Mut of A(y/D)AKQFAAI; Meth A) [Ube4a.1 Mut peptide] as the binder, how does the IC50 read?
Its IC50 is 0.012 µM.

With LDMLQALCI (WT of (sy/LD)MLQALCI) [Tnpo3 WT peptide] as the binder, how does the IC50 read?
Its IC50 is 0.146 µM.

How did the IC50 turn out when DYVPMEQPRPP (CMS5) [Alkbh6.4 Mut peptide] was run?
Its IC50 is 47.1 µM.

How did the IC50 turn out when HYLQGSNA (Mut of H(y/D)LQGSNA; Meth A) [Fiz1 Mut peptide] was run?
Its IC50 is 2.47 µM.

Which IC50 does the source give for B1 here?
The IC50 was 0.082 µM.

GDSVLHLAI (WT of G(y/D)SVLHLAI) [Nfkb1 WT peptide] was tested. Which IC50 did it give?
Its IC50 is 1.61 µM.

With GYSVLHLAI (Mut of G(y/D)SVLHLAI; Meth A) [Nfkb1 Mut peptide] as the binder, how does the IC50 read?
Its IC50 is 0.00026 µM.

QVFPGLMER [Atxn10.1 WT peptide] was tested. Which IC50 did it give?
The IC50 was 7.05 µM.

LYDVDAAF (Mut of L(y/D)DVDAAF; Meth A) [Cpsf2 Mut peptide] was tested. Which IC50 did it give?
The IC50 was 1.41 µM.

Which IC50 does the source give for KLQRQYRSPRR [Mast2 WT peptide] here?
Its IC50 is 8.51 µM.

KLQRQYRSPRL (CMS5) [Mast2 Mut peptide] was tested. Which IC50 did it give?
Its IC50 is 10.1 µM.

For AYAKQFAA (Mut of A(y/D)AKQFAA; Meth A) [Ube4a.2 Mut peptide], which IC50 is on record?
Its IC50 is 28.6 µM.

How did the IC50 turn out when SEDKIKAIP [Rangap1 WT peptide] was run?
Its IC50 is 5.11 µM.

For GFHGCIHEVL (CMS5) [Slit3 Mut peptide], which IC50 is on record?
The IC50 was 51.6 µM.

With PDLTQYAIIM [Dhx8.4 WT peptide] as the binder, how does the IC50 read?
The IC50 was 6.26 µM.

How did the IC50 turn out when PYLTQYAIIM (CMS5) [Dhx8.4 Mut peptide] was run?
The IC50 was 6.57 µM.

SDRLPSSRKK [M112 WT peptide] was tested. Which IC50 did it give?
Its IC50 is 0.017 µM.

VYLTCRLEKPA (Meth A) [Gapdh Mut peptide] was tested. Which IC50 did it give?
Its IC50 is 1.15 µM.

With KYMSMLEER (Mut of K(y/D)MSMLEER; Meth A) [Ckap5 Mut peptide (Table 5, 9-mer)] as the binder, how does the IC50 read?
The IC50 was 0.058 µM.

For LDYERIHKKML [Ugdh WT peptide], which IC50 is on record?
The IC50 was 0.012 µM.

For LYYERIHKKML (Meth A) [Ugdh Mut peptide], which IC50 is on record?
The IC50 was 0.6 µM.

With PDLTQYAII (WT of P(y/D)LTQYAII) [Dhx8.3 WT peptide] as the binder, how does the IC50 read?
Its IC50 is 1.42 µM.

How did the IC50 turn out when PYLTQYAII (Mut of P(y/D)LTQYAII; CMS5) [Dhx8.3 Mut peptide] was run?
The IC50 was 0.244 µM.

Which IC50 does the source give for PDKRLKAEPA [Prrc2a WT peptide] here?
Its IC50 is 0.261 µM.

PYKRLKAEPA (Meth A) [Prrc2a Mut peptide] was tested. Which IC50 did it give?
The IC50 was 1.45 µM.

Which IC50 does the source give for ADILAALTKL [Trim26.1 WT peptide] here?
Its IC50 is 0.0011 µM.

AYILAALTKL (Meth A) [Trim26.1 Mut peptide] was tested. Which IC50 did it give?
The IC50 was 0.622 µM.

ELQGLLEDER [Ccdc136 WT peptide] was tested. Which IC50 did it give?
Its IC50 is 4.54 µM.

How did the IC50 turn out when LYHTRPTAL (Mut of L(y/D)HTRPTAL; Meth A) [Kdm4b Mut peptide] was run?
Its IC50 is 0.264 µM.

PALKSEEKTL (CMS5) [Stau1.3 Mut peptide] was tested. Which IC50 did it give?
The IC50 was 69.5 µM.
